# Laboratory results published in article PMC2711901 (Nature structural & molecular biology, 2009).
# T1: GST-Ubc9 (S. pombe, UniProt P40984 1-157)
# T1 sequence (looked up): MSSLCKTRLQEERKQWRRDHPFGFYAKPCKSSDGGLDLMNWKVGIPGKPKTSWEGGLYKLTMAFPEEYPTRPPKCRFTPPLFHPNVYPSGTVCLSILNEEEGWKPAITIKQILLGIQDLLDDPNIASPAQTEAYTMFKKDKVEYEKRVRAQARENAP
# B1: 6His-Rad60 SLD2 (domain or fragment, S. pombe, UniProt Q9USX3 332-406, looked up)
# chain: KLITLLLRSSKSEDLRLSIPVDFTVKDLIKRYCTEVKISFHERIRLEFEGEWLDPNDQVQSTELEDEDQVSVVLD
# Molecular target: T1, GST-Ubc9
# Assay: pull-down
binder,measurement,value
B1,binding result,binds
